Measured values: the domain aggregation screens of Martell et al. (2025)

Assay: soluble fraction after stress (log2 fold change); higher = more stays soluble; pooled small domains, quantitative proteomics
Settings: stress: 75 degC
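Also: 20 min heating vs room temperature control held 20 min.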

## HMRRKDIEFTNTMLEELYRHNSKWYDAVVRAYALEIPQKQIAEEMGIRLEAFQSMLFRAKKWIKTKYEADY
  soluble fraction (log2): -2.83

## HMRRNLSGEDTIVNRMAQWQYTQEQKNELHKMMDAGMPQEDILSVFYPEIKAEEMHRFLLAFQTAHNSG
  soluble fraction (log2): -0.344

## HMRRPRGVFNLVPRGFKRFGFITPDGGGEDMFAHLENVRAGHVVEDRNAVEYGIGRGPDGRDQAVDIVPVP
  soluble fraction (log2): -0.0889

## HMRRPTYPTVTTEAGMVVEDRSSGFVGDIVRWSFEGVTLRDRQQQLRHFTWKPGGFLINGTPVTLKRPE
  soluble fraction (log2): -0.733

## HMRRRVIGTLVMGDMSTDFKVLADGHTHRVLAAAISFHKAKPGDEVVILVPKSAPSKWAAVEHVMK
  soluble fraction (log2): 0.033

## HMRSAKLPYSEFLKLVDTDKVNDVSIVGRTISGHLDDGSKFSTYTPPNDPNIIEKLSSHNVIINSAPE
  soluble fraction (log2): 0.0959

## HMRSASFDIMSQKQSDATLGYERVYDTETNEVYKAYNGFTDDYDGERYKSISDNMYTKGISGYIEK
  soluble fraction (log2): 0.39

## HMRSDSEIKEDVLDELMWQPNIDETQIGVIVEKGVVTLTGFVDAYAKKTAALDAVKNVKGVKAVANDIEV
  soluble fraction (log2): 0.131

## HMRSFGRLRRRDSGRWEAAYVGPDARLYRAPATFEAKDDAIAWLSAERRMIELDTWIKPHDRASR
  soluble fraction (log2): -1.78

## HMRSGFAFSEEEIKHLDNIVSPLLIKGQSIHHISIFHKDEVMMSERTLYSYVNNGLFSARNIDMPRTVRMR
  soluble fraction (log2): 0.476

## HMRSISVEMDGKEYLIPTVSENGKVLSDDDAVKQFKKTGKHLDVFDSPEDATAYARQLHEDQESFYA
  soluble fraction (log2): 0.231

## HMRSKTDLVYEEIKKLILRGELSSDTPISENHLARRFEISRTPIREALKRLHIEGFVRIIPNHGVFVR
  soluble fraction (log2): -2.15

## HMRSLAVGNVVSEEGKPSYLLLDSKRTMLFSENSIPSLYLEDGRRVIVNYTLLDEDYQGYDFRIHVNDIDT
  soluble fraction (log2): -0.00205

## HMRSNADALIGRTARVSQTIVENGFGRVALDGDDWKAQAADGSRIEEGQNVIVKDRDSIILTVEKE
  soluble fraction (log2): 0.243

## HMRSNIYTEEKLWTVLQDFFQENRYLTISLMRMKFGLSRHMAQKWIDHFIAKGLLVKDGTPRSPIYFLND
  soluble fraction (log2): -2.46

## HMRSNQKVSQIAISQVLPGMVTAKNVYSRNDQLILNRETTLDSTKIAKIMFYAIESIYVYEPE
  soluble fraction (log2): -2.21

## HMRSPVDALSNRELQVLQMVGRGLSSRQVAEALHLSVKTVEAHRQRIKGKLGLRTGAQLVQFAANWVTG
  soluble fraction (log2): -1.75

## HMRSREGVRWIIRERIMEELQERHHMDDGELLEMIDRSIGEMGQEIFLPLKERIWLRGSLFDSFR
  soluble fraction (log2): -3.07

## HMRSWRDQRVDDLLAAVSELGMTMSRAAAGDLLDQRVEYVANQMRVTPATARKYLTEETLAGMAREIVFG
  soluble fraction (log2): -1.02

## HMRTAFPQLTERELEILDLIAAGRNNAQIASALYLAPKTVRNNVSNILAKLQATDRAEAIIRARDAGLGG
  soluble fraction (log2): -0.201

## HMRTAKEVFYKELKGYMQNGDELSVKKIYSLFPEINPKTVSWRLHELVQHGKIHRTGHGYYALTQ
  soluble fraction (log2): -1.37

## HMRTDTIINSGGLKINPEEVENEILKSLGDNNFFIDKIKNDKFGEEIILIALKKIKINLLIESLNLI
  soluble fraction (log2): 0.0576

## HMRTFFEIEQLKAYVGEEIQVKFEADSHKQTVLGKLISISEDFIEIENSKKGNLKISLDNYLTSKLIY
  soluble fraction (log2): -2.23

## HMRTGSSVLVGLVAPVRLGATGAPKVFADGALWEARSAVPLNDGQLVEITGTDGLTVLVKPSA
  soluble fraction (log2): -0.122

## HMRTIVSELNDIKGISDASAKKLLIRYGSFEAVREAVMKHEEEFELDMGKRITGALTRYFYEE
  soluble fraction (log2): -1.78

## HMRTKLEEAVEWLQEQLNDGPVLSKELESEAKAADILPGTLRRAGEALGVVKQKQGGRGGWTWSLPR
  soluble fraction (log2): -0.017

## HMRTLGADLRALRKARGLTLAGMADNMGKSVGWMSQIERDISEPSISDLRALAKLLDVSVSSLFR
  soluble fraction (log2): -2.54

## HMRTQEELVAEVREQMEAMGTIATLYVELYESSEERLVGGVIFEDERHYRFVYEDGLLHYEEEK
  soluble fraction (log2): -0.527

## HMRTRSDVKRAAIIQAAKDAFQEYGVNATSMDKLAEMASVSKRTVYNHFSAKEELVMHIVKE
  soluble fraction (log2): 0.538

## HMRTVPEALLGRAYETAETAIVLEGLEAKRTDVFHPTIGNGTVIRLEPASGSQVSAGGVIEIFVSKGTETI
  soluble fraction (log2): -0.346

## HMRVDYKTQLQELLQRQGAAAPQYRLLVEEGPAHLRRFQVGVYFQGRLLGTGWGRNKKEAEQEAARQALMP
  soluble fraction (log2): -1.9

## HMRVEEVGYGEFLQMAEERDLAEVQVTDTEIIFSDKDTPPNYYKTGRMDDPFLVDRLYSAGIRDFGE
  soluble fraction (log2): -0.136

## HMRVESVGDRIRRLRKSLGLTQVKLAQMLGIKAPSVVQWESDKTNLSGENLLNAAKLFGVTPDYILYGG
  soluble fraction (log2): -0.197

## HMRVLEYTADGSRLDVLLSQDGVLSRSRAAELIKGGAVTVDGRAEGKPSAKPAPGALVRVEVPE
  soluble fraction (log2): 0.0615

## HMRVVGRNHYDDADLAHIRSVIQLEARPLNVSRIARTLANEYPKHTYWSYLSFLQKNLRDRPDLF
  soluble fraction (log2): -1.96

## HMRVVPEILERAVAVFEALGVDRLPSSTLADRLGYDSPEALADVLRPLGVRPKKYRDGKSTARGYLAADLG
  soluble fraction (log2): -0.526

## HMRYEESVTLGERLLNQSLVALKADNIDDALWERFLREEAGEKSRQEILSDIGLGKRLPVVVAKRLLAPS
  soluble fraction (log2): -0.115

## HMRYPLPYAFARSQQLLLEETDDGRYTLWMSSHPARSAVGEVSRKYGVQTFEVLADGPLAQRISAAYAQ
  soluble fraction (log2): -0.983

## HMRYTAAEMAKKLDISRSYLYYLKEAGVVEIEKNENGKPIWTESVYNQLFEYIKKNHRTEEADNTQ
  soluble fraction (log2): -0.805

## HMSAAIGEAVIATDEINVRSGPGLSHEIVSVVSRNESYPILEERGDWVQIQLNGGQKGWVVSWLIKKKS
  soluble fraction (log2): -0.665

## HMSAAMTESVLDGIPGLGATRKAALLAHFGSVRKLRAATSEQVREVPGIGPRLAETILATLHEP
  soluble fraction (log2): -0.52

## HMSAATGIINTDNVNIRSGPATTYDAVGRLNQGSSVEILSSRNDWYQIQANSLKGWVRNDLLNVQK
  soluble fraction (log2): -0.00758

## HMSADDLVSRTQAIVAELKDLEGPLLPILHSVQEAFGHVPDEVKPVIAEALNLSRAEVHGVVSFYHDFRAH
  soluble fraction (log2): -0.126

## HMSADIGAEKAKTIALNHAGVSASNAVFLHAKLDYDDGRRTYEVEFYSGSKEYDYEIDAATGEILSYDFD
  soluble fraction (log2): -0.929

## HMSAEAYLSFVKKENLRAAVVNYENNKEWLKDVPHERLLDLAVFAKVDMGEPGMSMKFNNWLLSR
  soluble fraction (log2): -0.934

## HMSAEKDGEWLTLTEAAKHLQVSPHVIRRLIQTGALPAEQVMRGAPHQIRAADLDTDRVKTMIAR
  soluble fraction (log2): 0.133

## HMSAEKPVKSELFYKSMLNSFEQAVRFMIANGILEDFKSRIVAINNETNHQNWFNKQEFNAIIERF
  soluble fraction (log2): -1.49

## HMSAERFDFRIGPELAGKRFDQALAEALPQFSRSRLSTWIKDGRATLNGATMRPKDSVHAGDTVVVNAE
  soluble fraction (log2): -0.186

## HMSAEVEVPDVVGRQVALAVQLIETKKLRVNVAETYDAKVPPGQVISQSPEAGMKVKEERVITIYVSR
  soluble fraction (log2): -1.36

## HMSAGISVADVTNRTYDEGYNTLTAQHLLVNKVYEANETIPLDTIIRTDPVAGTKVPDNTSITVYVSSGK
  soluble fraction (log2): 0.382

## HMSAGPQGRTPREDELTVGTKVYVSRVGASGVVSSDVSRGKVVVQVGALRLTAAVSELLLLDG
  soluble fraction (log2): -1.21

## HMSAGYTYQNYQQDLKSGNVQNIHIYLSEEMYSGNVKVIYKNNKSVTFTVTDVTIAEAEARQVGISPIIYE
  soluble fraction (log2): -2.38

## HMSAHDLQVVLRWIGTDEPMTDQRYRITTEDGRTFEGRTDDAGLTERVASTIPFGRYSIEALD
  soluble fraction (log2): -0.278

## HMSAIEIDAEKILNYLTDRGGKMPYGDTTAPEVIKDKFNISKAAFKRALGFLLRSNKIEQIDGWTYI
  soluble fraction (log2): -0.433

## HMSAIKSVTTQLDNTKLRTGPDVSYQYTQSYPANTKLTYINKSGTWYQVKDADGNTGYVASWVVTPSE
  soluble fraction (log2): 0.586

## HMSALIGAHTLERIDSRDFEGVVMAWLPKRDGYDSLYKIYHIEDGDFEELDDREVQAAISLFIEGT
  soluble fraction (log2): -0.381

## HMSAPAMTLDSIRSLLNDRDPWVVTQTVEWLVGLGPQVKTILETLTLESSDAARQAQNALDRINVRNYP
  soluble fraction (log2): -0.796

## HMSAPNPGQMHSWTDTQGRTLQATFIKADATTVTLNWNGRIVPIPLANLNAASQKLARELASAS
  soluble fraction (log2): -0.443

## HMSAPRRGETTAASLNLRAGPATDADILAQLPERTPLRVLQEDGEWLRVETHGNEGFVHRQFVAIPGDEP
  soluble fraction (log2): 0.0338

## HMSARRHAVKHLDANQLQTRVARMLSEFGLTAKVSKDPNSNALIIDGAPEAQRIAAQLITTIDKE
  soluble fraction (log2): 0.0709

## HMSASSDATRQRVLRAAEQLFGAKGVENVSLREMTTLAGVNLAAVNYHFGSKDALAEAVFEALSER
  soluble fraction (log2): 0.253

## HMSASSEALKTAVRKVLLNNRMTQDRMARDAGLSGSALSQWLHGKYQGDVPALEGRLAAWLADTQAS
  soluble fraction (log2): 0.0606

## HMSASSTAPGSVTLRGAILTAWTAAGGERSKMGLPVGYEVRQADGTVTQTFEKGRISVSPTGTATI
  soluble fraction (log2): 0.0449

## HMSAVNLNDDEKAVYKSIKSGIRSLDELSLRTGMKIYELMAITVSLEMKGLVTKSPDGTLDAT
  soluble fraction (log2): -0.743

## HMSDAKKRAFSKDEILYSLKNRPFTSFDIESLFDDESKKTFIGLLDKGEISEKKVAGTIFYYLR
  soluble fraction (log2): -0.817

## HMSDEEAISKLPGVGPAILEKLKEAGYNDIMTIAVDSPKNLAELAEIGEPTAAKIIAAAKKAAD
  soluble fraction (log2): 0.113

## HMSDIDIDVENDRAALAIAGGKLNHLVGARGEVLDALQELTRLAVQTSLGERSRLMLDIDNFRSD
  soluble fraction (log2): 0.185

## HMSDIHARIAAALAALTSPEKIHDLVVDDDGKVSFTFHLTREDPATLVRDARKAVQAVDGVRDVKVNVVDP
  soluble fraction (log2): 0.134

## HMSDKEDIDKYLLTYGDLLFNRTNSSEWVGKTAIYRGEVSAIYAGYLIRIRSFLDAEYLNSVMNSKYA
  soluble fraction (log2): 0.1

## HMSDKTSLTDDDKALINSMLPDYDKYPSVAKLQAVEIAKSSSKMATLLMLDERYNETVSEALE
  soluble fraction (log2): 0.152

## HMSDLGEIEKIVDEVLAENITKVQEYKDGKKGLMGMFMGQIMKKSGGKADPKIANQLLTEKL
  soluble fraction (log2): 0.11

## HMSDNHYLLEIFLADLKSDEKFIRELAIFQLHHHIESDKVRAELKAAAETESDPYLKGMIESLLSSTS
  soluble fraction (log2): -1.53

## HMSDNYYSILGIETDATTDMIKRAYRRLSLELHPDRTKDNPILTEKYKKVNEAYGVLNDNDRKHIYDLQNI
  soluble fraction (log2): -0.109

## HMSDPELAIPRVVGLSGNDAQAALVKAGFSAVTVVTVKNSEVTSEQVTHVVPAEGAKAKASTPVTVVVSSS
  soluble fraction (log2): -0.205

## HMSDRQLKRQANILYTTRKLASKVGYDGLTMRGLAEASEVSPKTLYNLFSSKDELLAAALEDLVGIV
  soluble fraction (log2): 0.0601

## HMSDTFTITTESGRIDKIITAHETTHTRSQVQKWLQDGLVTVNGNPVKANFKVTAGDVVTVTIPEVK
  soluble fraction (log2): 0.0601

## HMSDTMTVTNVKYAIYLRSTPSEASDANIIMEIPVGSKVTYLDTPNNTFYKISYGGTVGYSKQIYLTF
  soluble fraction (log2): -3.69
